Results: publication doi:10.1101/2025.07.15.665002 (bioRxiv, 2025)

B1: human cytosolic malate dehydrogenase, splice variant 3 (hMDH1V3) (enzyme, UniProt P40925-3 1-352, looked up)
chain: MGRRCSYFPKDVTVFDKDDKSEPIRVLVTGAAGQIAYSLLYSIGNGSVFGKDQPIILVLLDITPMMGVLDGVLMELQDCALPLLKDVIATDKEDVAFKDLDVAILVGSMPRREGMERKDLLKANVKIFKSQGAALDKYAKKSVKVIVVGNPANTNCLTASKSAPSIPKENFSCLTRLDHNRAKAQIALKLGVTANDVKNVIIWGNHSSTQYPDVNHAKVKLQGKEVGVYEALKDDSWLKGEFVTTVQQRGAAVIKARKLSSAMSAAKAICDHVRDIWFGTPEGEFVSMGVISDGNSYGVPDDLLYSFPVVIKNKTWKFVEGLPINDFSREKMDLTAKELTEEKESAFEFLSSA
B2: human mitochondrial malate dehydrogenase (hMDH2), wild type (enzyme, UniProt P40926-1 25-338, looked up)
chain: AKVAVLGASGGIGQPLSLLLKNSPLVSRLTLYDIAHTPGVAADLSHIETKAAVKGYLGPEQLPDCLKGCDVVVIPAGVPRKPGMTRDDLFNTNATIVATLTAACAQHCPEAMICVIANPVNSTIPITAEVFKKHGVYNPNKIFGVTTLDIVRANTFVAELKGLDPARVNVPVIGGHAGKTIIPLISQCTPKVDFPQDQLTALTGRIQEAGTEVVKAKAGAGSATLSMAYAGARFVFSLVDAMNGKEGVVECSFVKSQETECTYFSTPLLLGKKGIEKNLGIGKVSSFEEKMISDAIPELKASIKKGEDFVKTLK

Target: the molecule itself
Test: SAXS

| Protein | stoichiometry N |
| --- | --- |
| B1 | 2 |
| B2 | 2 |
